# Data reported in patent US12275759B2, “Hepatitis B virus replication inhibitor and pharmaceutical composition for treating hepatitis B comprising the same” (RIKEN, priority 2018, dated 2025).
# Residue numbers refer to the chain shown, from its start. In names and notes the source's numbering stands.
# B1: α1-4a (protein)
# chain: MDIDPYKEFGASVELLSFLPSDFFPSIRDLLDTASALYREALESPEHCSPHHTALRQAILCWGELMNLATWVGSNLEDPASRELVVSYVNV
# B2: α2-4b (protein)
# chain: MFLPSDFFPSIRDLLDTASALYREALESPEHCSPHHTALRQAILCWGELMNLATWVGSNLEDPASRELVVSYVNVNMGLKIRQLLWFHISCLTFG
# B3: α3-4b (protein)
# chain: MSPEHCSPHHTALRQAILCWGELMNLATWVGSNLEDPASRELVVSYVNVNMGLKIRQLLWFHISCLTFG
# B4: HR-RDBD (protein)
# chain: MGRETVLEYLVSFGVWIRTPPAYRPPNAPILSTLPETTVVRRRGRSPRRRTPSPRRRRSQSPRRRRSQSRESQC
# B5: ΔHBc(α1-4b)-F23A (protein)
# chain: MDIDPYKEFGASVELLSFLPSDAFPSIRDLLDTASALYREALESPEHCSPHHTALRQAILCWGELMNLATWVGSNLEDPASRELVVSYVNVNMGLKIRQLLWFHISCLTFG
# B6: ΔHBc(α1-4b)-L42A (protein)
# chain: B5 chain with A23F, L42A
# Columns and labels:
# Type in all cases: cell-based, hepatitis B virus
# [1] = test system: HBV replication; experiment: system for evaluating HBV replication activity (reporter (−) DNA quantitative PCR) in HeLa cells, with wild type HBc; settings: for inhibitory effect on HBV replication: pCI-HBc:pCI-ΔHBc = 9:26, 24 hours culture, amount of reporter (−) DNA vs positive control (empty vector), FIG. 7, 9, 11A; for inhibitory activity on HBV replication compared to wild type pCI-ΔHBc(α1-4b): single ratio as in Example 1, FIG. 11A
# Description: The effect of each of the aforementioned ΔHBc expression vector (pCI-ΔHBc) on HBV replication was examined using the system for evaluating HBV replication activity described in WO2018/030534 developed by the present inventors.
# Specifically, the system for evaluating HBV replication activity consisting of the vector for evaluating HBV replication activity (pBB-intron) encoding the reporter pgRNA shown in FIG. 5A, the HBV-P expression vector (pCI—HBV-Pol) shown in FIG. 5B, the HBc expression vector (pCI-HBc) shown in FIG. 5C, and the HBx expression vector (pCI-HBx) shown in FIG. 5D was introduced into HeLa cells together with each pCI-ΔHBc. The introduction ratio of the respective expression vectors was pBB-intron: pCI-HBc: pCI—HBV-Pol: pCI-HBx: pCI-ΔHBc=13:9:3:1:26. According to this ratio, the amount of ΔHBc is about three times (2.89 times) as much as that of the wild type HBc functioning in HBV replication. As a positive control, an empty vector (pCI) was introduced at the same ratio as pCI-ΔHBc. For gene introduction into HeLa cells, the electroporation method was used. Using an Electroporator Nepa21 (Nepa Gene Co., Ltd.) 10 μg of DNA was introduced into approximately 1×10^6 cells under the condition of 125 V/2.5 ms pulse length. The HeLa cells after gene introduction were cultured in DMEM to which 2 mL of 10% FBS was added in the presence of 5% CO2 at 37° C. for 24 hours.
# When the vector for evaluating HBV replication activity (pBB-intron) described above is introduced into HeLa cells, pre-mRNA shown in FIG. 6A is synthesized by RNA-pol II in HeLa cells, then an intron comprised in the reporter sequence of pBB-intron is immediately removed by pre-mRNA splicing in HeLa cells. […] The amount of this reporter (−) DNA reflects the replication activity and replication amount of HBV. Therefore, when DNA is extracted from the cells in which the system for evaluating HBV replication activity and pCI-ΔHBc are introduced, the amount thereof is quantified with a primer set specific to the reporter (−) DNA, and then compared with the amount of the positive control, the effect of pCI-ΔHBc on the HBV replication can be evaluated.
# DNA was extracted from HeLa cells after culture using DNeasy Mini (Qiagen N.V.). Then, quantitative PCR was performed using a primer set specific to the reporter (−) DNA after reverse transcription. For primers, a forward primer (Primer F) consisting of the base sequence shown in SEQ ID NO: 23, and a reverse primer (Primer R) consisting of the base sequence shown in SEQ ID NO: 24 were used. […] Therefore, it functions as a primer only when there is a reporter (−) DNA having the reporter sequence from which the intron has been removed, and the DNA fragment of 131 bases is amplified.
# The basic procedures were in accordance with Example 1. As pCI-ΔHBc to be introduced into HeLa cells together with the system for evaluating HBV replication activity, only pCI-ΔHBc(α1-4b) was used. The introduction ratio of the respective expression vectors was set such that the ratio of pCI-HBc: pCI—HBV-Pol: pCI-HBx was 9:3:1, and the ratio of pBB-intron: pCI-HBc/pCI—HBV-Pol/pCI-HBx was 1:1. Then, only the system for evaluating HBV replication activity in which the ratio of pCI-ΔHBc(α1-4b): pBB-intron/pCI-HBc/pCI—HBV-Pol/pCI-HBx was adjusted to 1:26, 3:26, 9:26, or 26:26, was introduced as a positive control. In each sample, an empty vector (pCI) was used for adjustment so that the amount of the vector to be introduced is the same.
# [2] = test system: HBV replication by HBc-T33N; experiment: system for evaluating HBV replication activity in HeLa cells with HBc-T33N in place of HBc-WT; settings: GLS4 0.08 to 5 μM, FIG. 13
# Protocol: The T residue at position 33 was substituted with an N residue (denoted as T33N) by a site-directed mutagenesis method using PrimeSTAR Mutagenesis Basal Kit (Takara Bio Inc.) using the full length HBc expression vector (pCI-HBc) of genotype C used in Example 1 as the template. The T33N mutant of the full length HBc having introduced the point mutation is denoted as HBc-T33N.
# The measurement of the HBV replication activity by HBc-WT or HBc-T33N was performed in accordance with the method described in Example 1 using HBc-WT or HBc-T33N as HBc comprised in the system for evaluating HBV replication described in Example 1 in the presence of GLS4 at a concentration of 0 μM, 0.08 μM, 0.16 μM, 0.31 μM, 0.63 μM, 1.25 μM, 2.5 μM, or 5 μM. Based on the obtained measurement value of HBV replication activity (amount of reverse transcribed HBV DNA), the efficiency for inhibition of HBV replication (%) was calculated.
# The evaluation of the inhibitory effect on HBV replication of the spike region ΔHBc(α1-4b) was in accordance with the method described in Example 2. However, in this Example, HBc-WT or HBc-T33N was used as the HBc comprised in the system for evaluating HBV replication described in Example 2.
# [3] = test system: HBV replication; experiment: system for evaluating HBV replication activity (reporter (−) DNA quantitative PCR) in HeLa cells, with wild type HBc; settings: GLS4 0.08 to 5 μM, HBc-WT in the system; FIG. 13
# [4] = test system: full length HBc; experiment: Western blotting under non-reducing conditions of HBc dimer and multimer formation in HeLa cells; settings: PA-tagged ΔHBc coexpressed with full length HBc in HeLa cells, antibody #511; FIG. 12A
# Protocol: Each of the expression vectors of the wild type full length HBc (HBc-WT), and mutant full length HBc (HBc-F23A and HBc-L42A) was introduced into HeLa cells, which were cultured for 24 hours. Then proteins were extracted with a WB lysis buffer (1% Triton, 25 mM Tris pH 7.4, 150 mM NaCl). After addition of CuSO4 (100 μM), the protein extract was incubated at room temperature for 20 min, and neutralized with 1 mM EDTA, to which α13-ME-free SDS-PAGE sample buffer was added. Then SDS-PAGE was performed using a 10 to 20% polyacrylamide gel (SuperSep™ Ace, FUJIFILM Wako Pure Chemical Corporation). After the electrophoresis, the proteins were transferred to a PVDF membrane using a semi-dry blotter, and Western blotting was performed using a mouse anti-human HBc monoclonal antibody (#511).
# The basic procedures were in accordance with the method described in Example 4. pCI-ΔHBc(α1-4b)-PA alone, or pCI-ΔHBc(α1-4b)-PA and pCI-ΔHBc(α1-4b)-F23A-PA at a ratio of 1:1 were introduced into HeLa cells.
Molecule,inhibitory effect on HBV replication ([1]; HeLa cells),other results
α4ab (MSNLEDPASRELVVSYVNVNMGLKIRQLLWFHISCLTFG),inhibitory activity on HBV replication was lost,–
α1-2b (MDIDPYKEFGASVELLSFLPSDFFPSIRDLLDTASALYREALESPEHCS),inhibitory activity on HBV replication was lost,–
CCOC(=O)C1=C(CN2CCOCC2)NC(c2nccs2)=NC1c1ccc(F)cc1Br (stereo not drawn) [GLS4],–,inhibitory effect on HBV replication by HBc-T33N (efficiency of inhibition) [2]: did not exhibit inhibitory effect on HBV replication by HBc-T33N; inhibitory effect on HBV replication by HBc-WT (efficiency of inhibition) [3]: inhibited HBV replication by HBc-WT in a concentration-dependent manner
B1,inhibitory activity on HBV replication was lost,–
B2,inhibitory activity on HBV replication was lost,–
B3,inhibitory activity on HBV replication was lost,–
B4,did not show the inhibitory activity on HBV replication,–
B5,inhibitory effect on HBV replication activity was maintained,"effect on multimer formation of the full length HBc [4]: inhibited the normal multimer formation of the full length HBc; dose-dependent inhibition of HBV replication ([1]; HeLa cells, HBc-WT, ΔHBc/WT-HBc expression vector ratio 1/9, 3/9, 9/9, 26/9, FIG. 8, 11B, 14 left): inhibited HBV replication depending on its expression level; inhibitory activity on HBV replication compared to wild type pCI-ΔHBc(α1-4b) ([1]; HeLa cells): more strongly inhibited than in the cells having introduced the wild type pCI-ΔHBc(α1-4b); inhibitory activity on HBV replication compared to ΔHBc(α1-4b), dose series ([1]; plasmids serially diluted with empty vector as in Example 2, FIG. 11B): stronger inhibitory activity on HBV replication than ΔHBc(α1-4b)"
B6,inhibitory effect on HBV replication activity was maintained,inhibitory activity on HBV replication compared to wild type pCI-ΔHBc(α1-4b) ([1]; HeLa cells): reduced compared to the wild type pCI-ΔHBc(α1-4b)
